# Test results taken from the nanobody polyreactivity screen of Harvey et al. (2022).
# Assay: yeast display, Sf9 membrane polyspecificity reagent, FACS + sequencing; frameworks hold sequencing errors
# Procedure, shortened: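 Sorting gates, low and high (top ~1%), were placed on anti-HA fluorescence to track expression and on streptavidin fluorescence to track reagent binding. A clone's polyreactivity label is taken from the gate it came out of. The reagent was 10% biotinylated, detergent-solubilized Sf9 membrane, applied for 1 hour at 4 °C to galactose-induced yeast display cells.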
row,Sequence,polyreactivity (PSR sort gate)
1,QVQLVESGGGLVQAGGSLRLSCAASGSTSIEYGMGWYRQAPGKERELVATISIGSSTNYADSVKGRFTISRDNAKNTVYLQMNSLKPEDTAVYYCAADAYLDYYTGYYYQEYDSWGQGTQVTVSS,low polyreactivity
2,QVQLVESGGCLVKAGGSLRLSSAASGSTFYYYAMGWYRQAPGKERELVAAITVNGGSTYYADSVKGRFTISRDNANNTVYLQMNSLKPGVTAVYYCAADDTYWVYPYTYSTYEYWGQGNQVTVSS,low polyreactivity
3,QVQLVESGGGLVQAGGSLRLSCAASGLTFRAYAMGWYRQAPGKERELVAAITWSGGSTYYADSVKGRFTISRDNAKNTVYLQMNSLKPEDTAVYYCTAVLRAGYWYYSHGYDYWGQGTQVTVSS,low polyreactivity
4,QVQLVESGGGLVQAGGSLRLSCAASGRTFTRYAMGWYRQAPGKERELVAAISGGGGSTYYADSVKGRFTISRDNAKNTVYLQMNSLKPEDTAVYYCAADVTYGTKWAYDYWGQGTQVTVSS,high polyreactivity
5,QVQLVESGGGLVQAGRSLRLSCAASGSTFYYYTMGWYRQEPGKERELVAAISFIGGSTYYADSVKGRFTISRDNAKNTVYLQMNSLKPEDTAVYYCAAESYPLSYSSATLSPSYEYWGQGTQVTVSS,low polyreactivity
6,QVQLVESGGGLVQAGGSLRLSCAASGSTLTSNAIGWYRQAPGKERELVAAIRSGGSTNYADSVKGRFTISRDNAKNTVYLQMYSLNPEDTAVYYCNAEEKVTYSASYYWVYDAMDHWGQGTQVTVSS,low polyreactivity
7,QVQLVESGVGKVQAGGSLRLSCAASGSTIGSNAMGWYRQAPGKESELVATINWRGGSTYADSVKGRFTLSRDNAKNTVYLQINSLKPEDTAVYYCKKVRGAFYSHLFDYWGQGTEVTVSS,high polyreactivity
8,QVQLVESGGGLVQAGGSLLLSCAASGSIFYSNAMAWYRQAPGKERELVATITWSGGRTYYADSVKGRFTISRDNAKNTVYLQMNSLKPDDTAVYYCAAVSIYWGQGTQVTVSS,low polyreactivity
9,QVQLVESGGGLVQAGGSLRLSCAASGRTFYVNAMGGYRQAPGKERELVARITSGGSTYYADSVKGRFTISRDNAKNTVYLQMNSLKPEDTAVYYCAKKYIGYQEWIHSTRRYDYWGQGTQVTGSS,low polyreactivity
10,QVQLVESGGGLVQAGGSLRLSCAASGYIFGNYAMGWYRQAPGKERELVAAISKSGVTTYYADSVKGRFTISRDNAKNTVYLQMNSLKPEDTAVYYCIARSWRPINARYNEYDYWGQGTQVTVSS,low polyreactivity
11,QVQLVESGGVLVQAGGSLRLSCAASGRLFSRYTMGWYRQAPGKERELVAAIRNTGSTNYADSVKGRFTISRDNAKNTVYLQMNSLKPEDTAVYYCNARTAYVAYHYYYPQRMDYWGQGTQVTVSS,high polyreactivity
12,QVQLVESGGGLVQAGGSLRLSCAASGSTFDVNALGWYSQAPGKDRELVAAISWNSGSTYYADSVKGRFTISRDNAKNTVYLQMNSLKPEDTAVYYCAATYGTGRRSKYGYWGQGTQVTVSS,high polyreactivity
13,QVQLVESGGGLVQAGGSLRLSCAASGLSFGIYAIGWYRKAPGKERELVAAISRSGGSTYYADSVKGRFTISRDNAKNTVYLQMNSLKPEDTAVYYCAAPYYVGYDYWGQGTQVTVSS,high polyreactivity
14,QVQLVESGGGLVQAGGSLRLSCAASGITFTGYAMGWYRQAPGKERELVAAITSGGGRTYYADSVKGRFTISRDNAKNTVYLQMNSLKPEDTAVYYCAFRYHGYDYWGQGTQVTVSS,high polyreactivity
15,QVQLVESGGGIVQAGGSLRLSCPASGIIFYLNPMGWSRQAPGKERELVAAITRGGSTYYADSVKGRFTISRDNEKNTVYLQMNSLKPEDTAVYYWAAKHGPGYRRWYDYWGQGTQVTVSS,high polyreactivity
16,QVQLVESGGGLVQAGGSLRLSCAASGSILGLYAMRWYRQATGKERELVASIPSSGSTYYAVSVKGRFTISRDYAKNTVYLQMYSLKPEDTAVYYCAAVGSYYYYIRYDYWGQGTQVTVSS,low polyreactivity
17,QVQLVESGGGLVQAGGSLRLSSAASGRTFRWYTMGWYRQAPGKERELVAAISYSGGRTYYADSVKGRFTISRDNAKNTVYLQMNSLKPEDTAVYYCNKRGPSYWRYVETSEYYYWGQGTQVTVSS,high polyreactivity
